Target: Alexa Fluor-AChR conjugate (acetylcholine receptor purified from Torpedo californica electric organs, labelled with Alexa Fluor 488 or 647) (Torpedo californica) (UniProt P02710)
Experiment: flow cytometry, CD19+ B cells stained with Alexa-AChR

“B cells (CD19+ or B220+) from CFA+AChR-immunized C57BL/6 mice with EAMG (spleen, lymph node, peripheral blood) (cells without a defined receptor)” showed a Percent of B cells that were AChR+ (lymph node, mean) of 10.4%.
For “B cells from unimmunized naive C57BL/6 mice (cells without a defined receptor)”, the Percent of B cells that were AChR+ (lymph node, mean) was 5.6%.

Source: patent US8530245B2
